Drawing on US20030096403A1, this text covers Ka for one molecule.

The assay deals with surface antigen S of hepatitis B virus (Greencross Co.) (hepatitis B virus). In words: competitive ELISA: antibody pre-incubated with soluble surface antigen S, then plate coated with surface antigen S. A general note: An ELISA detects its analyte on a solid surface through an enzyme-linked reagent.

B1: humanized antibody HzS-III (antibody, V domains shown)
VH: EVQLVQSGAEVKKPGASVKVSCKASGYTFTDYNVQWVRQAPGKSLEWMGYIYPYSGGTGYSQKFQGRVTLTVDNSASTAYMELSSLRSEDTAVYYCARNYGYDSSAYWGQGTLVTVSS
VL: DIVLTQSPASLAVSPGQRATITCRASESVSNYGINFINWFQQKPGQPPKLLIYTASNKGTGVPARFSGSGSGTDFTLTINPVEAEDTANYFCQQSKEVPYTFGGGTKVEIKR
B1 had a Ka of 4e+09 M⁻¹.
